B1: 15H12 fully human monoclonal anti-IGFR1 antibody (antibody, IgG3, V domains shown)
VH: EVQLVQSGGGLVHPGGSLRLSCAASGFTFSSFAMHWVRQAPGKGLEWISVIDTRGATYYADSVKGRFTISRDNAKNSLYLQMNSLRAEDMAVYYCARLGNFYYGMDVWGQGTTVTVSS
VL: EIVLTQVPDFQSVTPKEKVTITCRASQSIGSSLHWYQQKPDQSPKLLIKYASQSLSGVPSRFSGSGSGTDFTLTINSLEAEDAAAYYCHQSSRLPHTFGGGTKVEIKR
B2: 19D12 fully human monoclonal anti-IGFR1 antibody (antibody, V domains shown)
VH: B1 VH
VL: B1 VL

Experiments:
[1] = molecular target: soluble IGFR1 (sIGFR1), NSO-expressed recombinant protein encompassing the alpha-subunit and the extracellular domain of the beta-subunit of IGFR1 (human) (UniProt P08069); test: SPR (Biacore 3000), IGFR1 on CM-5 chip, 25° C.; calculated from koff
[2] = molecular target: soluble IGFR1 (sIGFR1), NSO-expressed recombinant protein encompassing the alpha-subunit and the extracellular domain of the beta-subunit of IGFR1 (human) (UniProt P08069); test: SPR (Biacore 3000), IGFR1 on CM-5 chip, 37° C.; calculated from koff
[3] = molecular target: soluble IGFR1 (sIGFR1), NSO-expressed recombinant protein encompassing the alpha-subunit and the extracellular domain of the beta-subunit of IGFR1 (human) (UniProt P08069); test: isotype ELISA on coated soluble IGFR1, detected with HRP-anti-hu-gamma
[4] = molecular target: soluble IGFR1 (sIGFR1), NSO-expressed recombinant protein encompassing the alpha-subunit and the extracellular domain of the beta-subunit of IGFR1 (human) (UniProt P08069); test: SPR (Biacore 3000), IGFR1 on CM-5 chip, 37° C.
[5] = molecular target: soluble IGFR1 (sIGFR1), NSO-expressed recombinant protein encompassing the alpha-subunit and the extracellular domain of the beta-subunit of IGFR1 (human) (UniProt P08069); test: SPR (Biacore 3000), IGFR1 on CM-5 chip, 25° C.; 25° C.
[6] = molecular target: soluble IGFR1 (sIGFR1), NSO-expressed recombinant protein encompassing the alpha-subunit and the extracellular domain of the beta-subunit of IGFR1 (human) (UniProt P08069); test: isotype ELISA on coated soluble IGFR1, detected with HRP-anti-hu kappa
[7] = molecular target: soluble IGFR1 (sIGFR1), NSO-expressed recombinant protein encompassing the alpha-subunit and the extracellular domain of the beta-subunit of IGFR1 (human) (UniProt P08069); test: isotype ELISA on coated soluble IGFR1, detected with HRP-anti-human IgG3
[8] = molecular target: soluble IGFR1 (sIGFR1), NSO-expressed recombinant protein encompassing the alpha-subunit and the extracellular domain of the beta-subunit of IGFR1 (human) (UniProt P08069); test: SPR (Biacore 3000), IGFR1 on CM-5 chip, 25° C.

Half-life [1] | Half-life [2] | ELISA signal (OD415 nm-490 nm) [3] | koff [4] | kon [4] | kon [5] | ELISA signal (OD415 nm-490 nm) [6] | ELISA signal (OD415 nm-490 nm) [7] | koff [8] | kon [8] | Binder
516 min | 288 min | 1.9 OD | 4.01e-05 s⁻¹ | 720000 M⁻¹ s⁻¹ | 500000 M⁻¹ s⁻¹ | 1 OD | 0.813 OD | 2.24e-05 s⁻¹ | – | B1
436 min | 234 min | – | 4.93e-05 s⁻¹ | 680000 M⁻¹ s⁻¹ | – | – | – | 2.65e-05 s⁻¹ | 400000 M⁻¹ s⁻¹ | B2
